According to the RNAGym collection of RNA variant scans (doi:10.7554/elife.90254):

B1: LINE1-mini (parent)
chain: GGCAGAGCUCAACACAGCGUGGCAAAGUGGCUGUGGCUAGACUGCC

Variants of: B1
Assay: self-cleavage, relative activity (ratio to wild type); higher = more cleavage; in vitro, sequencing; the parent is a self-cleaving ribozyme

**Q.** For GACAGAGCUCAACACAGCGUGGCAAAGUGGCUGUGGCUAGAGUGCC, which self-cleavage is on record?
**A.** The self-cleavage was 0.34.

**Q.** For GGCAUAGCUCAACACAGCGUGGCAAAGUGGCUGUGGCCAGACUGCC, which self-cleavage is on record?
**A.** Its self-cleavage is 0.05.

**Q.** Which self-cleavage does the source give for GGCGGAGCUCAACACAGCGUGGCAACGUGGCUGUGGCUAGACUGCC here?
**A.** Its self-cleavage is 0.63.

**Q.** Which self-cleavage does the source give for GGCAGAGCUCAACCCAGCGUGCCAAAGUGGCUGUGGCUAGACUGCC here?
**A.** The self-cleavage was 0.1.

**Q.** With GGCAGAGCUCAACACAGCGUGCCAAAGUGGCUGUGGCUAGACAGCC as the variant, how does the self-cleavage read?
**A.** The self-cleavage was 0.12.

**Q.** For GGCAGAGCUCAACACAGCGUGCCAAAGUGGCUGUGGCUAGACGGCC, which self-cleavage is on record?
**A.** Its self-cleavage is 0.06.

**Q.** For GGCAGAGCUCAACACAGCGUGCCAAAGUGGGUGUGGCUAGACUGCC, which self-cleavage is on record?
**A.** Its self-cleavage is 0.08.

**Q.** With GGCAGUGCUCAACACAGCGUGGCAAAGUGGCUGUUGCUAGACUGCC as the variant, how does the self-cleavage read?
**A.** The self-cleavage was 0.2.

**Q.** For GGCAGAGCUCAACACAGCGUGGCAAAGUUGCUGUGGCUAGCCUGCC, which self-cleavage is on record?
**A.** The self-cleavage was 0.05.

**Q.** With GGCAGAGCUCAACACAGCGUGGUAAAGUGGCUGUGACUAGACUGCC as the variant, how does the self-cleavage read?
**A.** The self-cleavage was 0.14.

**Q.** With GGCAGAGCUCAACACAGCGCGGCAAAGUGGCUGUGGCUAGACUCCC as the variant, how does the self-cleavage read?
**A.** The self-cleavage was 0.09.

**Q.** Which self-cleavage does the source give for GGCAGAGCUCAACAGAGCGUGGCAACGUGGCUGUGGCUAGACUGCC here?
**A.** Its self-cleavage is 0.04.

**Q.** For GGCAGAGCUCAACACAGCGUGGCAAAGUGGCUGUGGCUAUUCUGCC, which self-cleavage is on record?
**A.** Its self-cleavage is 0.37.

**Q.** For GGCAGAGCUCAACACAGCUUGGCAAAGUGGCUGUGGCAAGACUGCC, which self-cleavage is on record?
**A.** The self-cleavage was 0.38.

**Q.** For GGCAGAGCUCAAGACAGCGUGGCAAAGUGGCUGUGGCUAGACUGUC, which self-cleavage is on record?
**A.** The self-cleavage was 0.26.

**Q.** Which self-cleavage does the source give for GGCAGAGCUCAACACAGCGUGGCAAAGUCGCUUUGGCUAGACUGCC here?
**A.** Its self-cleavage is 0.36.

**Q.** Which self-cleavage does the source give for GGCAGAGCUCAACACAGCGUGGCAAAGUCGCUAUGGCUAGACUGCC here?
**A.** The self-cleavage was 0.12.

**Q.** For GGCAGAGCUCAACACAGCGUGGCAAAGUGGCCGUGGCUAGACAGCC, which self-cleavage is on record?
**A.** Its self-cleavage is 0.05.

**Q.** Which self-cleavage does the source give for GGCAGAGCCCAACACAGCGUGGCAAAGUGGCUAUGGCUAGACUGCC here?
**A.** Its self-cleavage is 0.06.

**Q.** For GGCAGAGCUCAACACAGCGUGGCAAAGUGGCUGUGGGCAGACUGCC, which self-cleavage is on record?
**A.** The self-cleavage was 0.04.

**Q.** For GGCAGAGCUCAACACAGGGUGGCAAAGUGGCUGAGGCUAGACUGCC, which self-cleavage is on record?
**A.** The self-cleavage was 0.05.

**Q.** For GGCAGAGCUCAACACAGCGUCGCAAAGUGGCUGUGGCUAAACUGCC, which self-cleavage is on record?
**A.** The self-cleavage was 0.04.

**Q.** Which self-cleavage does the source give for GGCAGAGCUCAACACAGCGUGGCAAAGUGUCUGCGGCUAGACUGCC here?
**A.** Its self-cleavage is 0.05.

**Q.** Which self-cleavage does the source give for GGCAGAGAUCAACACAGCGUGGCAUAGUGGCUGUGGCUAGACUGCC here?
**A.** Its self-cleavage is 0.36.

**Q.** For GGCAGAGAUCAACACAGCGUGGCGAAGUGGCUGUGGCUAGACUGCC, which self-cleavage is on record?
**A.** The self-cleavage was 0.38.

**Q.** With GGCAGAGCUCAACACAGCGUGCCAAAGUGGCUGUGGCUAGACUGGC as the variant, how does the self-cleavage read?
**A.** Its self-cleavage is 0.17.

**Q.** With GGCAGAGCUCAACACAGCGUGGCAAAGUGGCUGAUGCUAGACUGCC as the variant, how does the self-cleavage read?
**A.** The self-cleavage was 0.06.

**Q.** For GGCAGAGCUCAACACAGAGUGGCAAAGUGGCUGUGUCUAGACUGCC, which self-cleavage is on record?
**A.** Its self-cleavage is 0.07.

**Q.** For GGCAGAGCUCAACACACCGUGGCAGAGUGGCUGUGGCUAGACUGCC, which self-cleavage is on record?
**A.** Its self-cleavage is 0.18.

**Q.** Which self-cleavage does the source give for CGCAGAGCUGAACACAGCGUGGCAAAGUGGCUGUGGCUAGACUGCC here?
**A.** Its self-cleavage is 0.03.

**Q.** Which self-cleavage does the source give for GGCAGAGCUCAACACAGCGUGGAAAAAUGGCUGUGGCUAGACUGCC here?
**A.** Its self-cleavage is 0.92.

**Q.** For GGAAGAGCUCAACACAGCGUGGCAAAGUGGCUGUGGCUAGUCUGCC, which self-cleavage is on record?
**A.** The self-cleavage was 0.32.

**Q.** Which self-cleavage does the source give for GGCAGAGCUCAACCCAGCAUGGCAAAGUGGCUGUGGCUAGACUGCC here?
**A.** Its self-cleavage is 0.1.

**Q.** With GGCAGAGCUCAAUAAAGCGUGGCAAAGUGGCUGUGGCUAGACUGCC as the variant, how does the self-cleavage read?
**A.** Its self-cleavage is 0.08.

**Q.** With GGCAGAGCUCAACACAGCGUGGCAAAAUGGCUGUGACUAGACUGCC as the variant, how does the self-cleavage read?
**A.** Its self-cleavage is 0.09.

**Q.** For GGCAGAGCUCAACACAGCGUGGCAAUGUGGCUGUGGCUAGACUGCA, which self-cleavage is on record?
**A.** Its self-cleavage is 0.77.

**Q.** With GGCAGAUCUCAACACAGCGUGGCAAAGUGGCUCUGGCUAGACUGCC as the variant, how does the self-cleavage read?
**A.** Its self-cleavage is 0.15.

**Q.** For GGCAGAGCACAACACAGCGUCGCAAAGUGGCUGUGGCUAGACUGCC, which self-cleavage is on record?
**A.** Its self-cleavage is 0.06.

**Q.** For GGCAGAGCUCAACACAGCGUGGCAAAGUGGCUGUGGCUAGGCUGGC, which self-cleavage is on record?
**A.** The self-cleavage was 0.05.

**Q.** Which self-cleavage does the source give for GGCAGAACUCAACACAGCGUGGCAAAGUGGCUGUGCCUAGACUGCC here?
**A.** The self-cleavage was 0.27.

**Q.** Which self-cleavage does the source give for GGCAGAGCUCACCACAGCGUGGCAAAGUGGCUGUGGCUAGACUCCC here?
**A.** Its self-cleavage is 0.05.

**Q.** For GGCAGAGCUCAACACAGCGUGGCAAAGUGUCUGUGGCUAGACUCCC, which self-cleavage is on record?
**A.** The self-cleavage was 0.16.

**Q.** Which self-cleavage does the source give for GGCAGAGCUUAACACAGCGUGGCAAAGUGGCUGUGGCUAGAGUGCC here?
**A.** The self-cleavage was 0.05.

**Q.** For GCCAGAGCUCAACACAUCGUGGCAAAGUGGCUGUGGCUAGACUGCC, which self-cleavage is on record?
**A.** Its self-cleavage is 0.06.

**Q.** For GGCAGAGCUCAACACAGCCUGGCAAAGUGUCUGUGGCUAGACUGCC, which self-cleavage is on record?
**A.** The self-cleavage was 0.54.

**Q.** With GGCAGAGCUCAACACAGCGUGGCAAAGUGGCUGUGGCUAUACUACC as the variant, how does the self-cleavage read?
**A.** Its self-cleavage is 0.14.

**Q.** With GGCAGAGCUCAACCCAGCGUGGCAAAGUGGCUGUGGCUAGACUGCG as the variant, how does the self-cleavage read?
**A.** Its self-cleavage is 0.08.

**Q.** With GGCAGAGUUCAACACAGCGUGGCAAAGUGGCUAUGGCUAGACUGCC as the variant, how does the self-cleavage read?
**A.** Its self-cleavage is 0.15.

**Q.** Which self-cleavage does the source give for GGCAGAGCUCAACACAGCGCGGCAAAGUGGCUCUGGCUAGACUGCC here?
**A.** The self-cleavage was 0.07.

**Q.** With GGCAGAGCUCAACACAGCGUGGCAAUGUGGCUGUGACUAGACUGCC as the variant, how does the self-cleavage read?
**A.** The self-cleavage was 0.23.

**Q.** For GGCAAAGCUCAACACAGCGUGGCAAAGUGGUUGUGGCUAGACUGCC, which self-cleavage is on record?
**A.** Its self-cleavage is 0.06.

**Q.** With GGCAAAGCUCAACACAGCGUGGCAAAGUGGCUGUGGCUAGACUGUC as the variant, how does the self-cleavage read?
**A.** Its self-cleavage is 0.12.

**Q.** Which self-cleavage does the source give for GGCAGAGCUCAACACAGCGUGGCAAAGUAGCUGUGGCUAGACUACC here?
**A.** Its self-cleavage is 0.36.

**Q.** Which self-cleavage does the source give for GGCAGAGUUCAACACAGCGUGGCAAAGUGGCUGUAGCUAGACUGCC here?
**A.** Its self-cleavage is 0.32.

**Q.** Which self-cleavage does the source give for CGCAGAACUCAACACAGCGUGGCAAAGUGGCUGUGGCUAGACUGCC here?
**A.** Its self-cleavage is 0.04.

**Q.** Which self-cleavage does the source give for GGCAGAGCUCAACACAGCGUGGCAAAGAGGCUGUGGCUAGACCGCC here?
**A.** The self-cleavage was 0.09.
